Patent US20030082175A1 (Biogen, published 2003)

B1: FLAG-human APRIL (ligand)
chain: DYKDDDDKGPGQVQLQKQKKQHSVLHLVPINATSKDDSDVTEVMWQPALRRGRGLQAQGYGVRIQDAGVYLLYSQVLFQDVTFTMGQVVSREGQGRQETLFRCIRSMPSHPDRAYNSCYSAGVFHLHQGDILSVIIPRARAKLNLSPHGTFLGFVKL
notes: Made from plasmid ps429 (p1448) in 293T cells; also called FLAG-hAPRIL; FLAG-h APRIL
B2: hTRAIN-Fc (Fc fusion, human, UniProt Q9NS68 30-170, looked up)
chain: ESGDCRQQEFRDRSGNCVPCNQCGPGMELSKECGFGYGEDAQCVTCRLHRFKEDWGFQKCKPCLDCAVVNRFQKANCSATSDAICGDCLPGFYRKTKLVGFQDMECVPCGDPPPPYEPHCASKVNLVKIASTASSPRDTAL
notes: not shown: Fc part

What was measured:
[1] = molecular target: T1, hCD40-Fc (human, UniProt P25942 21-193, limits assumed); assay: ELISA, receptor-Fc coated, FLAG-tagged ligand detected with anti-FLAG M2
T1 construct: not shown: Fc part
T1 sequence (P25942 21-193 limits assumed): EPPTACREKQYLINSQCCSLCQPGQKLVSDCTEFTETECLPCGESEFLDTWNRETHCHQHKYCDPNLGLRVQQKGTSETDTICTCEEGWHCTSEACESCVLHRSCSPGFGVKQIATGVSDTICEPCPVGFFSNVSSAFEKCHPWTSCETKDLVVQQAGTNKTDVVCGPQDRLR

[2] = molecular target: B1; assay: immunoprecipitation from conditioned media with ProtG-Sepharose, anti-FLAG M2 blot
Method: (§1) Immunoprecipitation experiments: 293T cells were transfected with indicated expression plasmid (Rec-Fc or flag ligand) in 9 cm plate. Transfected cells were left for 5d in 8 ml Optimem media (Gibco-BRL). Immunoprecipitation were performed by mixing 200 ul of each receptor-conditioned media with 200 ul of each ligand-conditioned media+400 ul PBS+10 ul ProtG-Sepharose. These were rotated 1 h on a wheel, washed 4× with 1 ml PBS, then boiled in 50 ul sample buffer (+DTT). 20 ul of each immunoprecipitation was loaded per lane. Reveal blotting was done with 1 ug/ml anti-FLAG M2 mAb (Sigma, St Louis Mo.) and anti-mouse PO (1/2000). A reprobe blot with anti-human-PO was also checked: 100 ul conditioned media was precipitated with MeOH/CHC13/lysozyme. This mix was boiled in 50 ul sample buffer (+DTT) and 20 ul was loaded. A Reveal blot was performed with anti-FLAG mAb M2 (1 ug/ml) and anti-mouse-PO (1/2000).

[3] = molecular target: T2, FLAG-hBAFF (human, UniProt Q9Y275 136-285, limits assumed); assay: as above
T2 construct: also called hKayL-440 (hBAFF); hKayL-440; not shown: FLAG tag
T2 sequence (Q9Y275 136-285 limits assumed): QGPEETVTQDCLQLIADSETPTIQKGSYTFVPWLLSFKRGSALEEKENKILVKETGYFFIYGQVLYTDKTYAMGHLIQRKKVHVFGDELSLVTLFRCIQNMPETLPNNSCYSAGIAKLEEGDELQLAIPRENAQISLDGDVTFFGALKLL
Method: as §1

Row | binding result [1] | binding result [2] | binding result [3] | Binder
1 | no binding |  |  | B1
2 |  | no binding | no binding | B2
